Assays:
[1] = biological target: the molecule itself; assay: native MS; proteins buffer exchanged into 200 mM ammonium acetate pH 8.0, alone or mixed in different ratios (two or three components, with or without 50 bp DNA), 10 min on ice
[2] = biological target: T1, full-length ParC, N-terminal 6xHis-tag (E. coli, UniProt P0AFI2 1-752); assay: as above; conditions: both partners purified
T1 construct: ParC subunit of topoisomerase IV, E. coli, full length; also called His-ParC; ParC2; source: overexpressed, purified as previously published (Nolivos et al., 2016) with an added SEC step; not shown: His6, N-terminal, kept
T1 sequence (looked up): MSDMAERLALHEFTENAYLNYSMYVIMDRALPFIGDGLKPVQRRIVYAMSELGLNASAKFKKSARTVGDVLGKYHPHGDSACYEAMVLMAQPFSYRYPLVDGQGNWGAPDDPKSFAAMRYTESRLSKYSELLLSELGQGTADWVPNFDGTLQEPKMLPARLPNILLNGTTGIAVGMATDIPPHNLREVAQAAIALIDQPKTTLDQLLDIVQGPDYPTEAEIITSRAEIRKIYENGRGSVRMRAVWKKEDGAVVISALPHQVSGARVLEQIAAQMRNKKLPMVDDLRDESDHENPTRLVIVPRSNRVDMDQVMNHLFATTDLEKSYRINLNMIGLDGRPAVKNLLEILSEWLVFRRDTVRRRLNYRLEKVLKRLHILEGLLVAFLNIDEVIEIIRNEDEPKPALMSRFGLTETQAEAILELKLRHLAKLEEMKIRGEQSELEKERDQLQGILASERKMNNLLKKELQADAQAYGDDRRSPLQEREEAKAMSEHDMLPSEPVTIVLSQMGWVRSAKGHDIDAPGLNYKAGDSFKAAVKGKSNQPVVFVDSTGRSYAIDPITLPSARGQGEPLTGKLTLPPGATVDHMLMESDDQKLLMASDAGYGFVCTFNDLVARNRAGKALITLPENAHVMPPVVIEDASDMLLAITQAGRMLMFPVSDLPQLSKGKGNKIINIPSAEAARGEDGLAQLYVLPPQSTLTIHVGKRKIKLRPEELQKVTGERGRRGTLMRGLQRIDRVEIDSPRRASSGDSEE

[3] = biological target: T1, full-length ParC, N-terminal 6xHis-tag; assay: ITC; 100 µM LH titrated into 10 µM ParC at 25 °C; one-site model; three repeats; conditions: both partners purified

stoichiometry N [2]: 1 LH dimer per ParC dimer
Kd [3]: 690 nM
dH [3]: -7.48 kcal/mol
stoichiometry N [3]: 0.84
B1: MukB long hinge (LH; amino acid residues 568–863) (domain or fragment, E. coli, UniProt P22523 568-863, looked up)
chain: SLSDSVSNAREERMALRQEQEQLQSRIQSLMQRAPVWLAAQNSLNQLSEQCGEEFTSSQDVTEYLQQLLEREREAIVERDEVGARKNAVDEEIERLSQPGGSEDQRLNALAERFGGVLLSEIYDDVSLEDAPYFSALYGPSRHAIVVPDLSQVTEHLEGLTDCPEDLYLIEGDPQSFDDSVFSVDELEKAVVVKIADRQWRYSRFPEVPLFGRAARESRIESLHAEREVLSERFATLSFDVQKTQRLHQAFSRFIGSHLAVAFESDPEAEIRQLNSRRVELERALSNHENDNQQQR
notes: MukB, E. coli, residues 568-863: dimeric globular hinge domain and 20% of the coiled-coil region; also called LH (MBP cleaved); LH2; source: NEBExpress cells (pMAL-c5X), purified (amylose, Factor Xa cleavage, HiTrap Q XL, SEC); not shown: MBP, N-terminal, cleaved
stoichiometry N [1]: 2
